Biological target: T1, HER2-ECD-His (human, UniProt P04626 23-652)
T1 construct: extracellular domain; also called HER2-His; HER2-ECD-His protein; not shown: His tag
Assay: SPR (Biacore, CM5), IgG captured by anti-human IgG, HER2-ECD-His as analyte
Protocol: 2000 RU of goat anti-human IgG (Invitrogen, #H10500) was immobilized onto a CM5 sensor chip by […]. Then, the antibodies were allowed to bind at a rate of 50 μL/min for 5 minutes and then stabilized for 5 minutes by flowing a buffer. After stabilizing the antibodies, the HER2-ECD-His protein was allowed to bind at a rate of 50 μL/min for 4 minutes and then separated by flowing a buffer for 15 minutes. After analyzing the concentration, the resultant was recycled using 10 mM glycine (pH 1.5) and then subjected to the subsequent assay. The affinity of the antibodies was analyzed using the BIAevaluation software.

| Binder | Kd | koff | kon |
| --- | --- | --- | --- |
| hz39D2.14 (antibody, V domains shown) VH: QVQLVQSGSELKKPGASVKVSCKASGYTFTNYGVNWVRQAPGQGLEWMGWINTHTGEPTYAEEFKGRFVFSLDTSVSTAYLQISSLKAEDTAVYYCARDEYYVRTDYWGQGTTVTVSS VL: DIQMTQSPSSLSASVGDRVTITCKASQDINSYLSWFQQKPGKAPKTLIYRANRLVDGVPSRFSGSGSGQDYTLTISSLQPEDFATYYCLQYDEFPWTFGQGTKVEIK | 8 nM | 0.0003 s⁻¹ | 37000 M⁻¹ s⁻¹ |
| hz39D2.23 (antibody, human IgG1, kappa, V domains shown) VH: QVQLVQSGSELKKPGASVKVSCKASGYTFTNYGVNWVRQAPGQGLEWMGWINTHTGEPTYAEEFKGRFVFSLDTSVSTAYLQISSLKAEDTAVYYCARDEYYVRVDYWGQGTTVTVSS VL: DIQMTQSPSSLSASVGDRVTITCKASQDINSYLSWFQQKPGKAPKTLIYRANRLVDGVPSRFSGSGSGQDYTLTISSLQPEDFATYYCLQLDEFPWTFGQGTKVEIKR | 2.8 nM | 0.0002 s⁻¹ | 71000 M⁻¹ s⁻¹ |
| hz39D2.22 (antibody, V domains shown) VH: QVQLVQSGSELKKPGASVKVSCKASGYTFTNYGVNWVRQAPGQGLEWMGWINTHTGEPTYAEEFKGRFVFSLDTSVSTAYLQISSLKAEDTAVYYCARDEYYVRVDYWGQGTTVTVSS VL: DIQMTQSPSSLSASVGDRVTITCKASQDINSYLSWFQQKPGKAPKTLIYRANRLVDGVPSRFSGSGSGQDYTLTISSLQPEDFATYYCLELDEFPWTFGQGTKVEIK | 2 nM | 0.00016 s⁻¹ | 81000 M⁻¹ s⁻¹ |

— patent US20260028418A1 (GC CELL, published 2026)
